From patent US20090155176A1 (Novartis, published 2009) come the findings set out here.

For the test, the target named is T1, β2 construct alone (mock) expressed in 293 cells (UniProt P05107 23-769).
T1 construct: whole, on cells; Negative control transfectant; also called mock (β2) transfected cells
Put plainly: adhesion of transfected 293 cells to plate-bound ICAM-1-Ig.

T1 sequence (P05107 23-769): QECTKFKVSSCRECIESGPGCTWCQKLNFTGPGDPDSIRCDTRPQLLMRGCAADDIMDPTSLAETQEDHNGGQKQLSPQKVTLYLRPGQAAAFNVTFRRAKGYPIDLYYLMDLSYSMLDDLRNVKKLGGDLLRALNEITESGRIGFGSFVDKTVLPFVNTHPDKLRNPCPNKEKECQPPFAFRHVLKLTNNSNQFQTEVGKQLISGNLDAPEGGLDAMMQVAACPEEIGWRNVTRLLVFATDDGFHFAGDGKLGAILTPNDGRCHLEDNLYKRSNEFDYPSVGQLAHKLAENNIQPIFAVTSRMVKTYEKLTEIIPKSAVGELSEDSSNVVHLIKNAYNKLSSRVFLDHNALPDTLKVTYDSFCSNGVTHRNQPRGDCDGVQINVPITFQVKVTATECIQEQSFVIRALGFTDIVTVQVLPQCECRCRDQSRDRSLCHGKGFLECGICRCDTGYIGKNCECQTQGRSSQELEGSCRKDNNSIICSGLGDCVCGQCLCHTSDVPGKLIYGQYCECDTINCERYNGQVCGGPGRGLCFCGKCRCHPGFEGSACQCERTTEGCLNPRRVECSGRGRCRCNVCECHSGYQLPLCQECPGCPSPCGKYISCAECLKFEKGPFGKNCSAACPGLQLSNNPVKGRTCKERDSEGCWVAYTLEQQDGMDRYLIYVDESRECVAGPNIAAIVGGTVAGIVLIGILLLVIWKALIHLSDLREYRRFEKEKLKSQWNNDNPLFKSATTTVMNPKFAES

B1: ICAM-1-Ig (Fc fusion, UniProt P05362 28-480, looked up)
chain: QTSVSPSKVILPRGGSVLVTCSTSCDQPKLLGIETPLPKKELLLPGNNRKVYELSNVQEDSQPMCYSNCPDGQSTAKTFLTVYWTPERVELAPLPSWQPVGKNLTLRCQVEGGAPRANLTVVLLRGEKELKREPAVGEPAEVTTTVLVRRDHHGANFSCRTELDLRPQGLELFENTSAPYQLQTFVLPATPPQLVSPRVLEVDTQGTVVCSLDGLFPVSEAQVHLALGDQRLNPTVTYGNDSFSAKASVSVTAEDEGTQRLTCAVILGNQSQETLQTVTIYSFPAPNVILTKPEVSEGTEVTVKCEAHPRAKVTLNGVPAQPLGPRAQLLLKATPEDNGRSFSCSATLEVAGQLIHKNQTRELRVLYGPRLDERDCPGNWTWPENSQQTPMCQAWGNPLPELKCLKDGTFPLPIGESVTVTRDLEGTYLCRARSTQGEVTRKVTVNVLSPRYE
notes: not shown: Ig portion
For the molecule B1, the binding result was “no binding”.
